According to US20220402995A1 (TOSOH, published 2022):

Biological target: T1, VLP2 (virus-like particles of AAV2) (AAV2, UniProt P03135 1-735; P03135 1-598; P03135 1-533)
T1 construct: Empty AAV2 capsid; background says about 60 protein molecules, VP1:VP2:VP3 = 1:1:10; Immobilised on the ELISA plate
Test: ELISA on VLP2; binding after 43°C 15 min / untreated

T1 sequence (P03135 whole entry, chain 1 of 3): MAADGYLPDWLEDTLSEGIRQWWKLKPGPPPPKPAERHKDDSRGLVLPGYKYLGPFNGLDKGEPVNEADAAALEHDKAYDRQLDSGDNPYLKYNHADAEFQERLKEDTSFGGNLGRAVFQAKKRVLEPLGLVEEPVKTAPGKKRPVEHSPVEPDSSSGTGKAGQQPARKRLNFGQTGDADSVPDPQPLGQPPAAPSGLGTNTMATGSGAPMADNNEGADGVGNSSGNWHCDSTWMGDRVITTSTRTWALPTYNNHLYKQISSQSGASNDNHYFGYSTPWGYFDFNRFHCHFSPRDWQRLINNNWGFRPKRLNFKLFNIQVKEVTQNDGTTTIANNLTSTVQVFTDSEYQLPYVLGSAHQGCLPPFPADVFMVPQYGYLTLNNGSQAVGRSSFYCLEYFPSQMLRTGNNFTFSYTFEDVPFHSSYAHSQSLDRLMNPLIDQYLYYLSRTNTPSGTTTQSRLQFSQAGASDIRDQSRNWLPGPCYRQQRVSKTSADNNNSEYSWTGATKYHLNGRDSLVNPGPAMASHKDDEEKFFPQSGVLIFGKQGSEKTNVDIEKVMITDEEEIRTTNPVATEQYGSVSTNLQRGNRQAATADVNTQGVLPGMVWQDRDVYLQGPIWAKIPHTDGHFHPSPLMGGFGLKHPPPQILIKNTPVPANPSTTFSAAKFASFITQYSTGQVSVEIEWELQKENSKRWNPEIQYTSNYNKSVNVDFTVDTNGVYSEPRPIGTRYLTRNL
T1 sequence (P03135 139-735, tags left off, chain 2 of 3): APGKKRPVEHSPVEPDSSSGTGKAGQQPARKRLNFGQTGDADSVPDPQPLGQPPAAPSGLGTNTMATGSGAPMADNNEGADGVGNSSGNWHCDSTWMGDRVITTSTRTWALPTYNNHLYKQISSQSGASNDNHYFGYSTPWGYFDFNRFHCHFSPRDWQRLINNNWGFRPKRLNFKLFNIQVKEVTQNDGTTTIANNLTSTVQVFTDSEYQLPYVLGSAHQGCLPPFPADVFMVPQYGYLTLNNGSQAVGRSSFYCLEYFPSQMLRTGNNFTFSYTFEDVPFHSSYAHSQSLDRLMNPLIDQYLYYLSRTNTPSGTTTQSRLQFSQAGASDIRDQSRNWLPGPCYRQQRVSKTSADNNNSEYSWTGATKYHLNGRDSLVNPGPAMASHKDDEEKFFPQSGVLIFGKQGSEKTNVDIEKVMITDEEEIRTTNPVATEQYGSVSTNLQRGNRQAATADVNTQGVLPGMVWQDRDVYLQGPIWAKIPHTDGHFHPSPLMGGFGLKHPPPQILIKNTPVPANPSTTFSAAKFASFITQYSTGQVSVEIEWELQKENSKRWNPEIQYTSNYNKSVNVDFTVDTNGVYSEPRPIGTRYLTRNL
T1 sequence (P03135 203-735, chain 3 of 3): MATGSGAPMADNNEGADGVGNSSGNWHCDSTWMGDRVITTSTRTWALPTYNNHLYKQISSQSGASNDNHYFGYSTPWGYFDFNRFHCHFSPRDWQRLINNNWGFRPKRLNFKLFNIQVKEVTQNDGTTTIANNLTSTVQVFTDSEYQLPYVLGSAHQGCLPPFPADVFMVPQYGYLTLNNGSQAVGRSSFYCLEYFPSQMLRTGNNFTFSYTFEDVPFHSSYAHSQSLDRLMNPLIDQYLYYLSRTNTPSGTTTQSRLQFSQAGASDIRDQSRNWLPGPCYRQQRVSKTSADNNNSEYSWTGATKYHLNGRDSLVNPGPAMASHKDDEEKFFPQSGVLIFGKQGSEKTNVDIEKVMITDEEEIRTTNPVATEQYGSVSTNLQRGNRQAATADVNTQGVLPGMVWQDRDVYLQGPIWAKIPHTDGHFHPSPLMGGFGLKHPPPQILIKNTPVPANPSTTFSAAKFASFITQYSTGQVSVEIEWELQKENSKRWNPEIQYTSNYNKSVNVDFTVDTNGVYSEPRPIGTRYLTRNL

Binder | Residual activity [%]
AAV-binding protein No. 1 (Asn324Asp) (receptor) MGSAGESVQITLPKDEVQLNAYVLQEPPKGETYTYDWQLITHPRDYSGEMEGKHSQILKLSKLTPGLYEFKVIVEGQNAHGEGYVNVTVKPEPRKNRPPIAIVSPQFQEISLPTTSTVIDGSQSTDDDKIVQYHWEELKGPLREEKISEDTAILKLSKLVPGNYTFSLTVVDSDGATNSTTANLTVNKAVDHHHHHH | 46
AAV-binding protein No. 2 (Tyr331Cys) (receptor) MGSAGESVQITLPKNEVQLNACVLQEPPKGETYTYDWQLITHPRDYSGEMEGKHSQILKLSKLTPGLYEFKVIVEGQNAHGEGYVNVTVKPEPRKNRPPIAIVSPQFQEISLPTTSTVIDGSQSTDDDKIVQYHWEELKGPLREEKISEDTAILKLSKLVPGNYTFSLTVVDSDGATNSTTANLTVNKAVDHHHHHH | 73.4
AAV-binding protein No. 3 (Lys338Glu) (receptor) MGSAGESVQITLPKNEVQLNAYVLQEPPEGETYTYDWQLITHPRDYSGEMEGKHSQILKLSKLTPGLYEFKVIVEGQNAHGEGYVNVTVKPEPRKNRPPIAIVSPQFQEISLPTTSTVIDGSQSTDDDKIVQYHWEELKGPLREEKISEDTAILKLSKLVPGNYTFSLTVVDSDGATNSTTANLTVNKAVDHHHHHH | 52.6
AAV-binding protein No. 4 (Tyr344His) (receptor) MGSAGESVQITLPKNEVQLNAYVLQEPPKGETYTHDWQLITHPRDYSGEMEGKHSQILKLSKLTPGLYEFKVIVEGQNAHGEGYVNVTVKPEPRKNRPPIAIVSPQFQEISLPTTSTVIDGSQSTDDDKIVQYHWEELKGPLREEKISEDTAILKLSKLVPGNYTFSLTVVDSDGATNSTTANLTVNKAVDHHHHHH | 88.2
AAV-binding protein No. 5 (Asp345Asn) (receptor) MGSAGESVQITLPKNEVQLNAYVLQEPPKGETYTYNWQLITHPRDYSGEMEGKHSQILKLSKLTPGLYEFKVIVEGQNAHGEGYVNVTVKPEPRKNRPPIAIVSPQFQEISLPTTSTVIDGSQSTDDDKIVQYHWEELKGPLREEKISEDTAILKLSKLVPGNYTFSLTVVDSDGATNSTTANLTVNKAVDHHHHHH | 71.4
AAV-binding protein No. 6 (Trp346Leu) (receptor) MGSAGESVQITLPKNEVQLNAYVLQEPPKGETYTYDLQLITHPRDYSGEMEGKHSQILKLSKLTPGLYEFKVIVEGQNAHGEGYVNVTVKPEPRKNRPPIAIVSPQFQEISLPTTSTVIDGSQSTDDDKIVQYHWEELKGPLREEKISEDTAILKLSKLVPGNYTFSLTVVDSDGATNSTTANLTVNKAVDHHHHHH | 85.7
AAV-binding protein No. 7 (Leu348Pro) (receptor) MGSAGESVQITLPKNEVQLNAYVLQEPPKGETYTYDWQPITHPRDYSGEMEGKHSQILKLSKLTPGLYEFKVIVEGQNAHGEGYVNVTVKPEPRKNRPPIAIVSPQFQEISLPTTSTVIDGSQSTDDDKIVQYHWEELKGPLREEKISEDTAILKLSKLVPGNYTFSLTVVDSDGATNSTTANLTVNKAVDHHHHHH | 69.6
AAV-binding protein No. 8 (His351Leu) (receptor) MGSAGESVQITLPKNEVQLNAYVLQEPPKGETYTYDWQLITLPRDYSGEMEGKHSQILKLSKLTPGLYEFKVIVEGQNAHGEGYVNVTVKPEPRKNRPPIAIVSPQFQEISLPTTSTVIDGSQSTDDDKIVQYHWEELKGPLREEKISEDTAILKLSKLVPGNYTFSLTVVDSDGATNSTTANLTVNKAVDHHHHHH | 68.7
AAV-binding protein No. 10 (Arg353Cys) (receptor) MGSAGESVQITLPKNEVQLNAYVLQEPPKGETYTYDWQLITHPCDYSGEMEGKHSQILKLSKLTPGLYEFKVIVEGQNAHGEGYVNVTVKPEPRKNRPPIAIVSPQFQEISLPTTSTVIDGSQSTDDDKIVQYHWEELKGPLREEKISEDTAILKLSKLVPGNYTFSLTVVDSDGATNSTTANLTVNKAVDHHHHHH | 84.3
AAV-binding protein No. 11 (Tyr355Asn) (receptor) MGSAGESVQITLPKNEVQLNAYVLQEPPKGETYTYDWQLITHPRDNSGEMEGKHSQILKLSKLTPGLYEFKVIVEGQNAHGEGYVNVTVKPEPRKNRPPIAIVSPQFQEISLPTTSTVIDGSQSTDDDKIVQYHWEELKGPLREEKISEDTAILKLSKLVPGNYTFSLTVVDSDGATNSTTANLTVNKAVDHHHHHH | 80.6
AAV-binding protein No. 12 (Ser356Cys) (receptor) MGSAGESVQITLPKNEVQLNAYVLQEPPKGETYTYDWQLITHPRDYCGEMEGKHSQILKLSKLTPGLYEFKVIVEGQNAHGEGYVNVTVKPEPRKNRPPIAIVSPQFQEISLPTTSTVIDGSQSTDDDKIVQYHWEELKGPLREEKISEDTAILKLSKLVPGNYTFSLTVVDSDGATNSTTANLTVNKAVDHHHHHH | 84.6
AAV-binding protein No. 13 (Gly357Cys) (receptor) MGSAGESVQITLPKNEVQLNAYVLQEPPKGETYTYDWQLITHPRDYSCEMEGKHSQILKLSKLTPGLYEFKVIVEGQNAHGEGYVNVTVKPEPRKNRPPIAIVSPQFQEISLPTTSTVIDGSQSTDDDKIVQYHWEELKGPLREEKISEDTAILKLSKLVPGNYTFSLTVVDSDGATNSTTANLTVNKAVDHHHHHH | 97
AAV-binding protein No. 14 (Gln365Arg) (receptor) MGSAGESVQITLPKNEVQLNAYVLQEPPKGETYTYDWQLITHPRDYSGEMEGKHSRILKLSKLTPGLYEFKVIVEGQNAHGEGYVNVTVKPEPRKNRPPIAIVSPQFQEISLPTTSTVIDGSQSTDDDKIVQYHWEELKGPLREEKISEDTAILKLSKLVPGNYTFSLTVVDSDGATNSTTANLTVNKAVDHHHHHH | 57.7
AAV-binding protein No. 15 (Leu367Pro) (receptor) MGSAGESVQITLPKNEVQLNAYVLQEPPKGETYTYDWQLITHPRDYSGEMEGKHSQIPKLSKLTPGLYEFKVIVEGQNAHGEGYVNVTVKPEPRKNRPPIAIVSPQFQEISLPTTSTVIDGSQSTDDDKIVQYHWEELKGPLREEKISEDTAILKLSKLVPGNYTFSLTVVDSDGATNSTTANLTVNKAVDHHHHHH | 56.9
AAV-binding protein No. 17 (Phe379Ser) (receptor) MGSAGESVQITLPKNEVQLNAYVLQEPPKGETYTYDWQLITHPRDYSGEMEGKHSQILKLSKLTPGLYESKVIVEGQNAHGEGYVNVTVKPEPRKNRPPIAIVSPQFQEISLPTTSTVIDGSQSTDDDKIVQYHWEELKGPLREEKISEDTAILKLSKLVPGNYTFSLTVVDSDGATNSTTANLTVNKAVDHHHHHH | 80.9
AAV-binding protein No. 18 (Tyr393Cys) (receptor) MGSAGESVQITLPKNEVQLNAYVLQEPPKGETYTYDWQLITHPRDYSGEMEGKHSQILKLSKLTPGLYEFKVIVEGQNAHGEGCVNVTVKPEPRKNRPPIAIVSPQFQEISLPTTSTVIDGSQSTDDDKIVQYHWEELKGPLREEKISEDTAILKLSKLVPGNYTFSLTVVDSDGATNSTTANLTVNKAVDHHHHHH | 86.4
AAV-binding protein No. 19 (Val396Ala) (receptor) MGSAGESVQITLPKNEVQLNAYVLQEPPKGETYTYDWQLITHPRDYSGEMEGKHSQILKLSKLTPGLYEFKVIVEGQNAHGEGYVNATVKPEPRKNRPPIAIVSPQFQEISLPTTSTVIDGSQSTDDDKIVQYHWEELKGPLREEKISEDTAILKLSKLVPGNYTFSLTVVDSDGATNSTTANLTVNKAVDHHHHHH | 62.3
AAV-binding protein No. 20 (Lys399Glu) (receptor) MGSAGESVQITLPKNEVQLNAYVLQEPPKGETYTYDWQLITHPRDYSGEMEGKHSQILKLSKLTPGLYEFKVIVEGQNAHGEGYVNVTVEPEPRKNRPPIAIVSPQFQEISLPTTSTVIDGSQSTDDDKIVQYHWEELKGPLREEKISEDTAILKLSKLVPGNYTFSLTVVDSDGATNSTTANLTVNKAVDHHHHHH | 63.3
AAV-binding protein No. 21 (Tyr442Phe) (receptor) MGSAGESVQITLPKNEVQLNAYVLQEPPKGETYTYDWQLITHPRDYSGEMEGKHSQILKLSKLTPGLYEFKVIVEGQNAHGEGYVNVTVKPEPRKNRPPIAIVSPQFQEISLPTTSTVIDGSQSTDDDKIVQFHWEELKGPLREEKISEDTAILKLSKLVPGNYTFSLTVVDSDGATNSTTANLTVNKAVDHHHHHH | 48.7
AAV-binding protein No. 22 (Leu477Pro) (receptor) MGSAGESVQITLPKNEVQLNAYVLQEPPKGETYTYDWQLITHPRDYSGEMEGKHSQILKLSKLTPGLYEFKVIVEGQNAHGEGYVNVTVKPEPRKNRPPIAIVSPQFQEISLPTTSTVIDGSQSTDDDKIVQYHWEELKGPLREEKISEDTAILKLSKLVPGNYTFSPTVVDSDGATNSTTANLTVNKAVDHHHHHH | 79.9
AAV-binding protein No. 23 (Asn487Asp) (receptor) MGSAGESVQITLPKNEVQLNAYVLQEPPKGETYTYDWQLITHPRDYSGEMEGKHSQILKLSKLTPGLYEFKVIVEGQNAHGEGYVNVTVKPEPRKNRPPIAIVSPQFQEISLPTTSTVIDGSQSTDDDKIVQYHWEELKGPLREEKISEDTAILKLSKLVPGNYTFSLTVVDSDGATDSTTANLTVNKAVDHHHHHH | 58.3
AAV-binding protein No. 24 (Asn492Asp) (receptor) MGSAGESVQITLPKNEVQLNAYVLQEPPKGETYTYDWQLITHPRDYSGEMEGKHSQILKLSKLTPGLYEFKVIVEGQNAHGEGYVNVTVKPEPRKNRPPIAIVSPQFQEISLPTTSTVIDGSQSTDDDKIVQYHWEELKGPLREEKISEDTAILKLSKLVPGNYTFSLTVVDSDGATNSTTADLTVNKAVDHHHHHH | 63.2
AAV-binding protein No. 25 (Asn324Asp, Tyr355His) (receptor) MGSAGESVQITLPKDEVQLNAYVLQEPPKGETYTYDWQLITHPRDHSGEMEGKHSQILKLSKLTPGLYEFKVIVEGQNAHGEGYVNVTVKPEPRKNRPPIAIVSPQFQEISLPTTSTVIDGSQSTDDDKIVQYHWEELKGPLREEKISEDTAILKLSKLVPGNYTFSLTVVDSDGATNSTTANLTVNKAVDHHHHHH | 77.6
AAV-binding protein No. 26 (Asn329Tyr, Lys399Arg) (receptor) MGSAGESVQITLPKNEVQLYAYVLQEPPKGETYTYDWQLITHPRDYSGEMEGKHSQILKLSKLTPGLYEFKVIVEGQNAHGEGYVNVTVRPEPRKNRPPIAIVSPQFQEISLPTTSTVIDGSQSTDDDKIVQYHWEELKGPLREEKISEDTAILKLSKLVPGNYTFSLTVVDSDGATNSTTANLTVNKAVDHHHHHH | 61.9
